Reference: patent publication US20240002536A1 (GENERAL HOSPITAL, published 2024)
Primed or numbered codes have the meaning given here. Ends that are not written are not given here. * marks the point of attachment. Biotin = O=C1N[C@H]2[C@H](CS[C@H]2CCCCC(=O)*)N1; DBCO′ = dibenzocyclooctyne

T1: Az3db1 (also: triazole at chain A 9 to a chain's N-terminus)
T1 construct: Two synthetic peptides joined through the azide-DBCO click product; conversion to the click product was >=70%; also called click product of peptides Az3 and db1; original selection peptide
T1 peptide 1: Biotin-SGGGERTHK(azide)
T1 peptide 2: {DBCO′}-ARPDGG

T2: Az3
T2 construct: Unclicked precursor of Az3db1; also called azide-peptide Az3; single half-peptide
T2 peptide: Biotin-SGGGERTHK(azide)

T3: db1
T3 construct: Unclicked precursor of Az3db1; also called DBCO-ARPDGG; db1 half-peptide
T3 peptide: {DBCO′}-ARPDGG


Experiments:
Az3db1 [1] = target: T1, Az3db1; assay: ELISA-based competition in solution by the method of Friguet et al.; average of four independent determinations
Az3db1 [2] = target: T1, Az3db1; assay: competition ELISA after Friguet, plot of Ao/(Ao-A) against 1/a0 with soluble Az3Db1 competitor; one single determination
Description: The binding affinity of IgG1-51 antibody towards Az3db1 was measured in an ELISA-based format by the method of Friguet et al. (1985), to yield the dissociation constant (KD) from a specific data plot. Because the total concentration of free competitor in these studies is large compared to the concentration of antibody (antibody concentration ˜0.1 nm), the simplification of the Scatchard-Klotz equation as derived by Friguet et al. was used, as: […]

[3] = target: (glycan chain)--(N-acetylmannosamine)-<azide-DBCO>-ARPDGG; assay: flow cytometry on Jurkat cells pre-incubated with AzNAM and treated with Db1 peptide; DMSO-control cells treated with Db1 printed as 'Geo. Mean = 1.4'
Az3 [4] = target: T2, Az3; assay: competition ELISA: ratio of response slopes on immobilised Az3db1 without competitor / with soluble Az3
Description: (§1) We ranked the five scFv proteins 1S-5S in terms of their desired specificities and binding affinities. For this purpose, a series of ELISA-based competition assays were established, where scFvs were preincubated in solution with designated competitors before testing against immobilized target Az3db1 peptide. These included Az3db1 itself, and its constituent peptides Az3 and db1, in large (×100-fold) molar excess over the scFv proteins.
(§2) All ELISA assays used biotinylated target peptides for immobilized on streptavidin (SA) plates. For testing responses against Az3db1 (FIG. 3), a stock of the click product between peptides Az3 and db1 was made by incubating both together at 4.5 mM concentration in PBS pH 7.4 for 16 hr, conditions resulting in ≥70% conversion to the click product (FIG. 4). The resulting Az3db1 was positioned in an SA plate by incubating appropriate wells (after initial plate washing) with 100 μl of 1 pmol/μl of peptide. Dilutions of scFvs or IgG1-51 were made in PBS with 10 mg/ml bovine serum albumin (BSA) to levels typically beginning at 50 pg/μl, then in extended 2-fold dilution series from that point. Antibody or scFv dilutions were then incubated with Az3db1 target for 1 hr/room temperature, followed by treatment with appropriate secondary antibody-HRP conjugates (anti-human kappa for IgG1-51, anti-6H hexahistidine for all scFvs). After extensive washing, signals based on HRP activity from standard chromogenic substrates were read in a plate reader and collated.

db1 [5] = target: T3, db1; assay: competition ELISA: ratio of response slopes on immobilised Az3db1 without competitor / with soluble Db1
Description: as §1
as §2, with “Antibody or scFv dilutions were then incubated with Az3db1 target for 1 hr/room temperature, followed by treatment with appropriate secondary antibody-HRP conjugates (anti-human kappa for IgG1-51, anti-6H hexahistidine for all scFvs).” left out

Az3 [6] = target: T2, Az3; assay: phage ELISA, scFv displayed on M13
db1 [7] = target: T3, db1; assay: phage ELISA, scFv displayed on M13

| Binder | binding result (Az3 [4]) | binding result (Az3 [6]) | binding result (db1 [7]) | also measured |
| --- | --- | --- | --- | --- |
| IgG1-51 (antibody, V domains shown, VH and VL of scFv-51 fused in frame to human Cgamma1 and Ckappa and co-expressed in Hek293 cells; also called Ab51; antibody 51; not shown: Human Gamma1 C-region, Uniprot code P01857.1; Human Kappa C-region, Uniprot code P01834.2) VH: QMQLVQSGSELKKPGASVKVSCKASGYTFTSYAMNWVRQAPGQGLEWMGWINTNTGNPTYAQGFTGRFVFSLDTSVSTAYLQISSLKAEDTAVYYCARFDRPRGAFDIWGQGTLVTVSS VL: QAVLTQPSSLSASPGASASLTCTLRSGINVGTYRIYWYQQKPGSPPQYLLRYKSDSDKQQGSGVPSRFSGSKDASANAGILLISGLQSEDEADYYCMIWHSSAWVFGGGTKLTVLG | – | – | – | Kd (Az3db1 [1]): 160 nM; Kd (Az3db1 [2]): 175 nM; geometric mean fluorescence (Geo. Mean) [3]: 226 |
| scFv-18 (scFv, VH-(GGGGS)3 linker-VL from the human phage library HuScL-6; Protein ELISAs used an E. coli hexahistidine (6H) fusion; also called scFv-1S; 1S) scFv: QVQLVESGSELKKPGASVKVSCKASGYTFTNYAMNWVRQAPGQGLEWLGWINTNTGNPTYAQGFTGRFVFSLDTSVSTAYLQISSLKAEDTAVYYCARGSLGGTFDYWGQGTPVTVSSGGGGSGGGGSGGGGSQAVLTQPSSLSASPGASASLTCTLRSGINVGTYRIYWYQQKPGSPPQYLLRYKSDSDKHQDSGVPSRFSGSTDASANAGILLISGLQSEDEADYYCMIWHSRAWVFGGGTRGEIKR | no binding | – | – | binding result (db1 [5]): no binding |
| scFv-72 (scFv, VH-(GGGGS)3 linker-VL from the human phage library HuScL-6; expression as a protein failed) scFv: EVQLVESGAEVKKPGASVKVSCKASGYTFTSYAMNWVRQAPGQGLEWMGWINTNTGNPTYAQGFTGRFVFSLDTSVSTAYLQISSLKAEDTAVYYCARQRDYRMDVWGQGTMVTVSSGGGGSGGGGSGGGGSQAVLTQPSSLSASPGASASLTCTLRSGINVGTYRIYWYQQKPGSPPQYLLRYKSDSDKQQASGVPSRFSGSKDASANAGILLISGLQSEDEADYYCLIWHNNAWVFGGGTKVTVLG | – | no binding | no binding | – |
| scFv-36 (scFv, VH-(GGGGS)3 linker-VL from the human phage library HuScL-6; Protein ELISAs used an E. coli hexahistidine (6H) fusion; also called scFv-2S; 2S) scFv: QVQLVQSGAEVKKPGASVKVSCKASGYTFTSYGISWVRQAPGQGLEWMGWINTNTGNPTYAQGFTGRSVFSLDTSVSTAYLQISSLKAEDSAVYYCARHSDDGAFDIWGKGTMVTVSSGGGGSGGGGSGGGGSQAVLTQPSSLSASPGASASLTCTLRSGINVGTYRIYWYQQKPGSPPQYLLRYKSDSDKQQGSGVPSRFSGSKDASANAGTLLISGLQSEDEADYYCAIWHSSTWVFGGGTKVTVLG | no binding | – | – | – |
| scFv-64 (scFv, VH-(GGGGS)3 linker-VL from the human phage library HuScL-6; It was also expressed as an E. coli hexahistidine (6H) fusion) scFv: EVQLVESGSELKKPGASVKVSCKASGYTFTSYAINWVRQAPGQGLEWMGWINTNTGNPTYAQGFTGRFVFSLDTSVSTAYLQISSLKAEDTAVYYCARGYYDSSGYNFDYWGKGTLVTVSSGGGGSGGGGSGGGGSQAVLTQPSSLSASPGASASLTCTLRSGINVGTYRIYWYQQKPGSPPQYLLRYKSDSDKQQGSGVPSRFSGSKDASANAGILLISGLQSEDEADYYCMIWHSSAWVFGGGTKLTVLG | – | no binding | no binding | – |
| scFv-69 (scFv, VH-(GGGGS)3 linker-VL from the human phage library HuScL-6; It was also expressed as an E. coli hexahistidine (6H) fusion) scFv: QVQLVQSGSELKKPGASVKVSCKASGYTFTSYAMNWVRQAPGQGLEWMGWINTNTGNPTYAQGFTGRFVFSLDTSVSTAYLQISSLKAEDTAVYYCARGAAGVFDIWGKGTTVTVSSGGGGSGGGGSGGGGSQAVLTQPSSLSASPGASASLTCTLRSGINVGTYNIYWYQQKPGSPPQFLLRYKSDSDKQQVSGVPSRFSGSKDGSANAGILLISGLQSEDEADYYCMIWHSSAWVFGGGTKLTVLG | – | no binding | no binding | – |
| scFv-83 (scFv, VH-(GGGGS)3 linker-VL from the human phage library HuScL-6; expression as a protein failed) scFv: QVQLVQSGAEVKKPGASVKVSCKASGYSFTSYAMNWVRQAPGQGLEWMGWINTNTGNPMYAQGFTGRFVFSLDTSVSTAYLEVSSLKAEDTAVYFCARYNAMDVWGQGTTVTVSSGGGGSGGGGSGGGGSQAVLTQPSSLSASPGASASLTCTLRSGINVGTYRIYWYQQKPGSPPQYLLRYKSDSDKQQGSGVPSRFSGSKDASANAGILLISGLQSEDEADYYCMIWHSSAWVFGGGTKVTVLG | – | no binding | no binding | – |
| scFv-44 (scFv, VH-(GGGGS)3 linker-VL from the human phage library HuScL-6; Protein ELISAs used an E. coli hexahistidine (6H) fusion; also called scFv-3S; 3S) scFv: QVQLVQSGAEVKKPGSSVKVSCKASGYTFADYAINWVRQAPGQGLEWMGWINTNTGNPTYAQGFTGRFVFSLDTSVSTAYLQISSLEAEDTAVYYCARHFSGYSLDAVDIWGQGTLVTVSSGGGGSGGGGSGGGGSQAVLTQPSSLSASPGTSASLTCTLRSDINVGAYRIYWYKHKAGSPPQFLLRFKSDSDNYRGSGVPGRFSGSKDASANAGILLISGLQSEDEADYYCAIWHSSTWVFGGGTKLTVLG | no binding | – | – | binding result (db1 [5]): no binding |
